Measurements reported in US20260284212 (published 2026).

T1: human CD6 (human, UniProt P30203)
T1 chain: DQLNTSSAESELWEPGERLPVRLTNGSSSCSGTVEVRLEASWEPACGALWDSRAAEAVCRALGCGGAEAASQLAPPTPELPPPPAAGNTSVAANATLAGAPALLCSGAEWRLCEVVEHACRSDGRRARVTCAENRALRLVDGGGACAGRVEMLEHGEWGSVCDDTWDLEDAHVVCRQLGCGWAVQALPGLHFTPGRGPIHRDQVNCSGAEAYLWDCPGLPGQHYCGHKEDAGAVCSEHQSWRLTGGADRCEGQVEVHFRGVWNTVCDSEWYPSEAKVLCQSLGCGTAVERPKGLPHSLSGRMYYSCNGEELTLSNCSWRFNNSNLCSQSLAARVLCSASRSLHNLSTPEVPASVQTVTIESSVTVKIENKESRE

T2: human CD5 (human, UniProt P06127)
T2 chain: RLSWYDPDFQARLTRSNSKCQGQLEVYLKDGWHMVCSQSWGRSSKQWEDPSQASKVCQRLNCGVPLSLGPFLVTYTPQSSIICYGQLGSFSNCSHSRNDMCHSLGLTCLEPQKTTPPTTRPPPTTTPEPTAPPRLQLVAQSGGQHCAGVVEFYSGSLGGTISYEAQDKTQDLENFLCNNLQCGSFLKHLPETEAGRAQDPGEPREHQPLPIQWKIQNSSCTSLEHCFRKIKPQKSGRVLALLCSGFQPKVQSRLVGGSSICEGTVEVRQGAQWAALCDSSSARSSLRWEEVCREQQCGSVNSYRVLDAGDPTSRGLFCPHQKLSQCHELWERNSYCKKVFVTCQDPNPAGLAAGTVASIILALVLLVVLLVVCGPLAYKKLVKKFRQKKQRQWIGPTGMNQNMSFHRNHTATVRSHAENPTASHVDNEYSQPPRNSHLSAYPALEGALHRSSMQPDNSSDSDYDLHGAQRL


Assays:
[1] = molecular target: T1, human CD6
[2] = molecular target: T1, human CD6; assay: ELISA
[3] = molecular target: T2, human CD5; assay: ELISA

Row | Kd [1] [nM] | EC50 [2] [nM] | binding result [3] | Binder
1 | 0.24 | 0.053 | no binding | CD601HH8 HuG1Fc (antibody, V domains shown) VH: QVQLVESGGGLVQPGGSLRLSCSASERTFSDYAMGWFRQAPGKEREFVAAINWVGGSTYYADSVKGRFTISRDNSKNTLYLQMNSLRAEDTAVYYCVASWGAMPVLTHVINYWGKGTLVTVSS
2 | 0.21 | 0.053 | no binding | A1CD601 VHH HuG1Fc (chimeric) (antibody, V domains shown) VH: QVQLQESGGGLVQAGGSLRLSCTASERTFSDYALGWFRQGPGKEREFVAAINWVGGSTYYADSVKGRFTISRDNAKNTLLLQMNSLKPEDTAVYFCVASWGAMPVLTHVINYWGKGTQVTVSS
3 | 0.222 | 0.05 | no binding | CD601HH12 HuG1Fc (antibody, V domains shown) VH: QVQLVESGGGLVQPGGSLRLSCTASERTFSDYALGWFRQAPGKEREFVAAINWVGGSTYYADSVKGRFTISRDNSKNTLYLQMNSLRAEDTAVYYCVASWGAMPVLTHVINYWGKGTLVTVSS
4 | 0.247 | 0.066 | no binding | CD601HH10 HuG1Fc (antibody, V domains shown) VH: QVQLQESGGGLVQPGGSLRLSCSASERTFSDYALGWFRQAPGKEREFVAAINWVGGSTYYADSVKGRFTISRDNSKNTLYLQMNSLRAEDTAVYYCVASWGAMPVLTHVINYWGKGTLVTVSS
5 | 0.269 | 0.053 | no binding | CD601HH14 HuG1Fc (antibody, V domains shown) VH: QVQLVESGGGLVQPGGSLRLSCSASERTFSDYALGWFRQAPGKEREFVAAINWVGGSTYYADSVKGRFTISRDNAKNTLYLQMNSLRAEDTAVYYCVASWGAMPVLTHVINYWGKGTLVTVSS
